# Patent publication US6500417 (DSM N V, dated 2002)
# Numbering of substitutions follows the chain as printed.
# B1: hIL-3 deletion mutant 933 (deletion 29-37) (ligand)
# chain: APMTQTTPLKTSWVNCSNMIDEIITHLKNNLNGEDQDILMENNLRRPNLEAFNRAVKSLQNASAIESILKNLLPCLPLATAAPTRHPIHIKDGDWNEFRRKLTFYLKTLENAQAQQTTLSLAIF
# notes: expressed in Bacillus, lacks a leader
# B2: hIL-3 deletion mutant 937 (deletion 89-95) (ligand)
# chain: APMTQTTPLKTSWVNCSNMIDEIITHLKQPPLPLLDFNNLNGEDQDILMENNLRRPNLEAFNRAVKSLQNASAIESILKNLLPCLPLAPIHIKDGDWNEFRRKLTFYLKTLENAQAQQTTLSLAIF
# notes: not shown: heterologous N-terminal leader of the E. coli fusion (pGB/IL-336: 12 aa; pGB/IL-339: 15 aa)
# B3: hIL-3 deletion mutant 936 (deletion 76-83) (ligand)
# chain: APMTQTTPLKTSWVNCSNMIDEIITHLKQPPLPLLDFNNLNGEDQDILMENNLRRPNLEAFNRAVKSLQNASAIECLPLATAAPTRHPIHIKDGDWNEFRRKLTFYLKTLENAQAQQTTLSLAIF
# notes: as for B2
# B4: hIL-3 combination deletion mutant Z (deletions 1-14/116-133) (ligand)
# chain: NCSNMIDEIITHLKQPPLPLLDFNNLNGEDQDILMENNLRRPNLEAFNRAVKSLQNASAIESILKNLLPCLPLATAAPTRHPIHIKDGDWNEFRRKLTFYL
# notes: as for B1
# B5: hIL-3 deletion mutant 820 (deletion 85-90) (ligand)
# chain: APMTQTTPLKTSWVNCSNMIDEIITHLKQPPLPLLDFNNLNGEDQDILMENNLRRPNLEAFNRAVKSLQNASAIESILKNLLPCAPTRHPIHIKDGDWNEFRRKLTFYLKTLENAQAQQTTLSLAIF
# notes: as for B2
# B6: hIL-3 deletion mutant 812 (deletion 54-61) (ligand)
# chain: APMTQTTPLKTSWVNCSNMIDEIITHLKQPPLPLLDFNNLNGEDQDILMENNLNRAVKSLQNASAIESILKNLLPCLPLATAAPTRHPIHIKDGDWNEFRRKLTFYLKTLENAQAQQTTLSLAIF
# notes: as for B2
# B7: hIL-3 deletion mutant 934 (deletion 47-54) (ligand)
# chain: B6 chain with I47R, L48P, M49N, E50L, N51E, N52A, L53F
# notes: as for B2
# B8: hIL-3 deletion mutant 811 (deletion 31-49) (ligand)
# chain: APMTQTTPLKTSWVNCSNMIDEIITHLKQPENNLRRPNLEAFNRAVKSLQNASAIESILKNLLPCLPLATAAPTRHPIHIKDGDWNEFRRKLTFYLKTLENAQAQQTTLSLAIF
# notes: as for B1
# B9: reference IL-3 preparation (B. licheniformis, full-length IL-3 cDNA in pGB/IL-322) (ligand)
# chain: APMTQTTPLKTSWVNCSNMIDEIITHLKQPPLPLLDFNNLNGEDQDILMENNLRRPNLEAFNRAVKSLQNASAIESILKNLLPCLPLATAAPTRHPIHIKDGDWNEFRRKLTFYLKTLENAQAQQTTLSLAIF
# modifications: radiolabeled with the Bolton-Hunter reagent when used as tracer
# B10: hIL-3 substitution mutant 1488 (Lys79→Glu79) (ligand)
# chain: B9 chain with K79E
# notes: also called 79K → E; not shown: heterologous N-terminal leader of the E. coli fusion (pGB/IL-336: 12 aa; pGB/IL-339: 15 aa)
# B11: hIL-3 substitution mutant 1484 (Arg54Arg55→Glu54Asp55) (ligand)
# chain: B9 chain with R54E, R55D
# notes: also called 54RR → ED; not shown: heterologous N-terminal leader of the E. coli fusion (pGB/IL-336: 12 aa; pGB/IL-339: 15 aa)
# B12: hIL-3 substitution mutant 904 (Cys16→Ala16) (ligand)
# chain: B9 chain with C16A
# notes: also called 16C → A; not shown: heterologous N-terminal leader of the E. coli fusion (pGB/IL-336: 12 aa; pGB/IL-339: 15 aa)
# B13: hIL-3 substitution mutant 1486 (Arg63Ala64→Pro63Gly64) (ligand)
# chain: B9 chain with R63P, A64G
# notes: also called 63RA → PG; not shown: heterologous N-terminal leader of the E. coli fusion (pGB/IL-336: 12 aa; pGB/IL-339: 15 aa)
# B14: hIL-3 substitution mutant 1481 (Glu43Asp44→Lys43Arg44) (ligand)
# chain: B9 chain with E43K, D44R
# notes: also called 43ED→KR; not shown: heterologous N-terminal leader of the E. coli fusion (pGB/IL-336: 12 aa; pGB/IL-339: 15 aa)
# B15: hIL-3 substitution mutant 905 (Cys84→Ala84) (ligand)
# chain: B9 chain with C84A
# notes: also called 84C → A; not shown: heterologous N-terminal leader of the E. coli fusion (pGB/IL-336: 12 aa; pGB/IL-339: 15 aa)
# B16: hIL-3 substitution mutant 1483 (Glu50→Lys50) (ligand)
# chain: B9 chain with E50K
# notes: also called 50E → K; not shown: heterologous N-terminal leader of the E. coli fusion (pGB/IL-336: 12 aa; pGB/IL-339: 15 aa)
# B17: hIL-3 substitution mutant 1493 (Phe113Tyr114→Ala113Thr114) (ligand)
# chain: B9 chain with F113A, Y114T
# notes: also called 113FY → AT; not shown: heterologous N-terminal leader of the E. coli fusion (pGB/IL-336: 12 aa; pGB/IL-339: 15 aa)
# B18: hIL-3 substitution mutant 1492 (Arg108Arg109Lys110→Glu108Asp109Glu110) (ligand)
# chain: B9 chain with R108E, R109D, K110E
# notes: also called 108RRK → EDE; not shown: heterologous N-terminal leader of the E. coli fusion (pGB/IL-336: 12 aa; pGB/IL-339: 15 aa)
# B19: hIL-3 double cysteine mutant 9045 (Cys16Cys84→Ala16Ala84) (ligand)
# chain: B9 chain with C16A, C84A
# notes: also called 16/84C → A; not shown: heterologous N-terminal leader of the E. coli fusion (pGB/IL-336: 12 aa; pGB/IL-339: 15 aa)
# B20: pGB/IL-336 IL-3 fusion protein (ligand)
# chain: MTMITNSRGSVDAPMTQTTPLKTSWVNCSNMIDEIITHLKQPPLPLLDFNNLNGEDQDILMENNLRRPNLEAFNRAVKSLQNASAIESILKNLLPCLPLATAAPTRHPIHIKDGDWNEFRRKLTFYLKTLENAQAQQTTLSLAIF
# B21: hIL-3 deletion mutant 935 (deletion 60-70) (ligand)
# chain: APMTQTTPLKTSWVNCSNMIDEIITHLKQPPLPLLDFNNLNGEDQDILMENNLRRPNLEASAIESILKNLLPCLPLATAAPTRHPIHIKDGDWNEFRRKLTFYLKTLENAQAQQTTLSLAIF
# notes: as for B2
# B22: hIL-3 deletion mutant 813 (deletion 66-80) (ligand)
# chain: APMTQTTPLKTSWVNCSNMIDEIITHLKQPPLPLLDFNNLNGEDQDILMENNLRRPNLEAFNRAVLLPCLPLATAAPTRHPIHIKDGDWNEFRRKLTFYLKTLENAQAQQTTLSLAIF
# notes: also called 4813; not shown: heterologous N-terminal leader of the E. coli fusion (pGB/IL-336: 12 aa; pGB/IL-339: 15 aa)
# B23: hIL-3 deletion mutant 821 (deletion 94-102) (ligand)
# chain: APMTQTTPLKTSWVNCSNMIDEIITHLKQPPLPLLDFNNLNGEDQDILMENNLRRPNLEAFNRAVKSLQNASAIESILKNLLPCLPLATAAPTDWNEFRRKLTFYLKTLENAQAQQTTLSLAIF
# notes: as for B2
# B24: hIL-3 deletion mutant 938 (deletion 103-111) (ligand)
# chain: B23 chain with D94R, W95H, N96P, E97I, F98H, R99I, R100K, K101D, L102G
# notes: as for B2
# B25: hIL-3 deletion mutant 810 (deletion 20-30) (ligand)
# chain: APMTQTTPLKTSWVNCSNMPLPLLDFNNLNGEDQDILMENNLRRPNLEAFNRAVKSLQNASAIESILKNLLPCLPLATAAPTRHPIHIKDGDWNEFRRKLTFYLKTLENAQAQQTTLSLAIF
# notes: also called 4810; not shown: heterologous N-terminal leader of the E. coli fusion (pGB/IL-336: 12 aa; pGB/IL-339: 15 aa)
# B26: hIL-3 combination deletion mutant X (deletions 1-14/120-133) (ligand)
# chain: NCSNMIDEIITHLKQPPLPLLDFNNLNGEDQDILMENNLRRPNLEAFNRAVKSLQNASAIESILKNLLPCLPLATAAPTRHPIHIKDGDWNEFRRKLTFYLKTLE
# notes: as for B1
# B27: hIL-3 deletion mutant 822 (deletion 107-119) (ligand)
# chain: APMTQTTPLKTSWVNCSNMIDEIITHLKQPPLPLLDFNNLNGEDQDILMENNLRRPNLEAFNRAVKSLQNASAIESILKNLLPCLPLATAAPTRHPIHIKDGDWNENAQAQQTTLSLAIF
# notes: as for B2
# Key:
# IL-3 receptor [1] = molecular target: T1, IL-3 receptor (human, UniProt P26951 19-378; P32927 17-897); assay: competition with radiolabeled hIL-3 for binding to cells, relative to reference IL-3
# T1 construct: whole, on cells; also called ILK3 receptor
# Description: (§1) An ILK3 receptor binding assay was performed with purified recombinant hIL-3 (see EPA 0390252) was radiolabeled with the Bolton-Hunter reagent (as described by Budel et al., Blood 74 (1989) 565–571). The specific activity was estimated at 80,000 cpm/ng of IL-3. As target, either donor leukocytes, patient AML cells, or MV4-11 (ATCC: CRL-9591) cells were used. Cells were washed in Hanks Balanced Salt solution and suspended in Alpha-MEM plus 1% BSA. Usually, 3–10×10⁶ cells were incubated with 200–300 pM of radiolabeled IL-3 and various concentrations of unlabeled mutant protein in a total volume of 200 µl for 1 hr at 37° C. Cell-bound labeled IL-3 was centrifuged for 10 min at 1000×g at 4° C. through a 0.5 ml cushion of bovine calf serum in an Eppendorf tube (Budel et al., 1989). The tubes were frozen in liquid nitrogen and the tips cut off for counting in a Packard gamma counter. Competition binding was determined relative to the reference preparation. […] Radiolabeled IL-3 binding to patient AML blasts is competed with unlabeled IL-3 protein (reference preparation). Due to the low number of receptors (less than 200) on the target cells, data for competition mostly varied by one order of magnitude.
# IL-3 receptor [2] = molecular target: T1, IL-3 receptor; assay: cell-based or functional assay
# IL-3 receptor [3] = molecular target: T1, IL-3 receptor; assay: competition with radiolabeled IL-3 for binding to cells; NC: No competition was observed for the particular mutein preparation
# Description: as §1
# T1 sequence (P26951 19-378, chain 1 of 2): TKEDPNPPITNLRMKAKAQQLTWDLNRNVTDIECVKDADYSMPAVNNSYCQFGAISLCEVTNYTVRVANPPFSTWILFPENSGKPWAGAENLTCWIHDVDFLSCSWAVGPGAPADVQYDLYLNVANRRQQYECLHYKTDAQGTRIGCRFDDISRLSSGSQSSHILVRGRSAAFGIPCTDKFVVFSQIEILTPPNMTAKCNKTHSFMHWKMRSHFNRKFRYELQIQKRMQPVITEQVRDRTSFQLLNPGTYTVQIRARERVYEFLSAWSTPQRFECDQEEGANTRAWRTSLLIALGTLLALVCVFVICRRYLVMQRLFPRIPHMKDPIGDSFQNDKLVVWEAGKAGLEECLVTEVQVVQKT
# T1 sequence (P32927 17-897, chain 2 of 2): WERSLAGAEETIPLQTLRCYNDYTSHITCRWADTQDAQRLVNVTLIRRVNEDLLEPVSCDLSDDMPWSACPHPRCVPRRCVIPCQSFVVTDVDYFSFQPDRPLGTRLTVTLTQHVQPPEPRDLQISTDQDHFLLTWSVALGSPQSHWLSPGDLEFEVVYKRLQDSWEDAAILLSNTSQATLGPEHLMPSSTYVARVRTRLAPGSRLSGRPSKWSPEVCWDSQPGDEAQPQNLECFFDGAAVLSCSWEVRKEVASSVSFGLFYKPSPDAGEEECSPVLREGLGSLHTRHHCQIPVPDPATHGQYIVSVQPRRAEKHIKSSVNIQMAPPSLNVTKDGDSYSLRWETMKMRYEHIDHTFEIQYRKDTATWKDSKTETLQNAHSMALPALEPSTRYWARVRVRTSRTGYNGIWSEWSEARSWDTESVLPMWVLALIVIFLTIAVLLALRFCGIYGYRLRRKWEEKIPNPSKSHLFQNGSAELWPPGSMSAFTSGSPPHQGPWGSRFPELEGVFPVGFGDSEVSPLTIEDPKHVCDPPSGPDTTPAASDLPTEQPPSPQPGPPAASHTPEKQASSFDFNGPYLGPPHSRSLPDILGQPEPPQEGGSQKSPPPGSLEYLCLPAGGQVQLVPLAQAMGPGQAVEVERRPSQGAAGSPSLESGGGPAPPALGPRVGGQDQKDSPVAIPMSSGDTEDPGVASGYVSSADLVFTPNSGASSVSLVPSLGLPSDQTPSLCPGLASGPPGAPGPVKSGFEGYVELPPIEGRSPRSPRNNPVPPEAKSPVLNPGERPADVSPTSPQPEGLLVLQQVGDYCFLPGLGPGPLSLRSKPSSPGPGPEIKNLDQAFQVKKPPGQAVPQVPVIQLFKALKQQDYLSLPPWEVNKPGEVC
Binder,relative antagonistic potential (relative receptor binding activity / relative biological activity) (IL-3 receptor [1]),REL. SPEC. BIOLOGICAL ACTIVITY (DNA synthesis of AML193 cells) (IL-3 receptor [2]),binding result (IL-3 receptor [3])
B1,1.1,0.0057 relative to reference IL-3,–
B2,–,1e-05 relative to reference IL-3,no binding
B3,–,6.4e-06 relative to reference IL-3,no binding
B4,1.6,0.11 relative to reference IL-3,–
B5,–,1.1e-05 relative to reference IL-3,no binding
B6,1.2,5.3e-05 relative to reference IL-3,–
B7,–,7.3e-05 relative to reference IL-3,no binding
B8,1.6,0.0048 relative to reference IL-3,–
B9,–,1 relative to reference IL-3,–
B10,65,0.0019 relative to reference IL-3,–
B11,3.5,8e-05 relative to reference IL-3,–
B12,100,0.00024 relative to reference IL-3,–
B13,14,9.8e-05 relative to reference IL-3,–
B14,–,< 0.00015 relative to reference IL-3,no binding
B15,11,0.00019 relative to reference IL-3,–
B16,37,0.0027 relative to reference IL-3,–
B17,–,< 1.2e-05 relative to reference IL-3,no binding
B18,2,3.1e-05 relative to reference IL-3,–
B19,88,0.00031 relative to reference IL-3,–
B20,1.1,0.79 relative to reference IL-3,–
B21,–,1.2e-05 relative to reference IL-3,no binding
B22,–,2.4e-05 relative to reference IL-3,no binding
B23,–,1.8e-05 relative to reference IL-3,no binding
B24,–,6.6e-05 relative to reference IL-3,no binding
B25,2.4,0.0021 relative to reference IL-3,–
B26,8.9,0.23 relative to reference IL-3,–
B27,1.9,0.00021 relative to reference IL-3,–
